The results in this text go back to US20150344570A1 (published 2015).

The labels stand for the following.
B1: GpH7-A5/GpH7-B3 variant S298_11K/GpL16-k0 (antibody, human IgG1, kappa)
heavy 1: not shown
heavy 2: not shown
light: DIVMTQSPLSLPVTPGEPASISCQASESLVHSNRNTYLHWYLQKPGQSPQLLIYKVSNRFSGVPDRFSGSGSGTDFTLKISRVEAEDVGVYYCSQNTHVPPTFGQGTKVEIERTVAAPSVFIFPPSDEQLKSGTASVVCLLNNFYPREAKVQWKVDNALQSGNSQESVTEQDSKDSTYSLSSTLTLSKADYEKHKVYACEVTHQGLSSPVTKSFNRGEC
notes: also called He Ab S298_11K
B2: GpH7-A5/GpH7-B3 variant P271_07I/GpL16-k0 (antibody, human IgG1, kappa)
heavy 1: not shown
heavy 2: not shown
light: B1 light
notes: also called He Ab P271_07I
B3: GpH7-A5/GpH7-B3 variant S298_04F/GpL16-k0 (antibody, human IgG1, kappa)
heavy 1: not shown
heavy 2: not shown
light: B1 light
notes: also called He Ab S298_04F
B4: GpH7-A5/GpH7-B3 variant S267_08L/GpL16-k0 (antibody, human IgG1, kappa)
heavy 1: not shown
heavy 2: not shown
light: B1 light
notes: also called He Ab S267_08L
B5: GpH7-A5/GpH7-B3 variant P271_06M/GpL16-k0 (antibody, human IgG1, kappa)
heavy 1: not shown
heavy 2: not shown
light: B1 light
notes: also called He Ab P271_06M
B6: GpH7-A5/GpH7-B3 variant S239_09D/GpL16-k0 (antibody, human IgG1, kappa)
heavy 1: not shown
heavy 2: not shown
light: B1 light
notes: also called He Ab S239_09D
B7: GpH7-A5/GpH7-B3 variant Q295_18N/GpL16-k0 (antibody, human IgG1, kappa)
heavy 1: not shown
heavy 2: not shown
light: B1 light
notes: also called He Ab Q295_18N
B8: GpH7-A5/GpH7-B3 variant S298_10E/GpL16-k0 (antibody, human IgG1, kappa)
heavy 1: not shown
heavy 2: not shown
light: B1 light
notes: also called He Ab S298_10E
B9: GpH7-A5/GpH7-B3 variant P271_20W/GpL16-k0 (antibody, human IgG1, kappa)
heavy 1: not shown
heavy 2: not shown
light: B1 light
notes: also called He Ab P271_20W
B10: GpH7-A5/GpH7-B3 variant S267_01G/GpL16-k0 (antibody, human IgG1, kappa)
heavy 1: not shown
heavy 2: not shown
light: B1 light
notes: also called He Ab S267_01G
B11: GpH7-A5/GpH7-B3 variant P271_12R/GpL16-k0 (antibody, human IgG1, kappa)
heavy 1: not shown
heavy 2: not shown
light: B1 light
notes: also called He Ab P271_12R
B12: GpH7-A5/GpH7-B3 variant Q295_14T/GpL16-k0 (antibody, human IgG1, kappa)
heavy 1: not shown
heavy 2: not shown
light: B1 light
notes: also called He Ab Q295_14T
B13: GpH7-A5/GpH7-B3 variant P271_13S/GpL16-k0 (antibody, human IgG1, kappa)
heavy 1: not shown
heavy 2: not shown
light: B1 light
notes: also called He Ab P271_13S
B14: GpH7-A5/GpH7-B3 variant S267_16H/GpL16-k0 (antibody, human IgG1, kappa)
heavy 1: not shown
heavy 2: not shown
light: B1 light
notes: also called He Ab S267_16H
B15: GpH7-A5/GpH7-B3 variant S239_01G/GpL16-k0 (antibody, human IgG1, kappa)
heavy 1: not shown
heavy 2: not shown
light: B1 light
notes: also called He Ab S239_01G
B16: GpH7-A5/GpH7-B3 variant Q295_07I/GpL16-k0 (antibody, human IgG1, kappa)
heavy 1: not shown
heavy 2: not shown
light: B1 light
notes: also called He Ab Q295_07I
B17: GpH7-A5/GpH7-B3 variant S267_03V/GpL16-k0 (antibody, human IgG1, kappa)
heavy 1: not shown
heavy 2: not shown
light: B1 light
notes: also called He Ab S267_03V
B18: GpH7-A5/GpH7-B3 variant S239_14T/GpL16-k0 (antibody, human IgG1, kappa)
heavy 1: not shown
heavy 2: not shown
light: B1 light
notes: also called He Ab S239_14T
B19: GpH7-A5/GpH7-B3 variant S267_09D/GpL16-k0 (antibody, human IgG1, kappa)
heavy 1: not shown
heavy 2: not shown
light: B1 light
notes: also called He Ab S267_09D
B20: GpH7-A5/GpH7-B3 variant S298_01G/GpL16-k0 (antibody, human IgG1, kappa)
heavy 1: not shown
heavy 2: not shown
light: B1 light
notes: also called He Ab S298_01G
B21: GpH7-A5/GpH7-B3 variant Q295_03V/GpL16-k0 (antibody, human IgG1, kappa)
heavy 1: not shown
heavy 2: not shown
light: B1 light
notes: also called He Ab Q295_03V
B22: GpH7-A5/GpH7-B3 variant S239_18N/GpL16-k0 (antibody, human IgG1, kappa)
heavy 1: not shown
heavy 2: not shown
light: B1 light
notes: also called He Ab S239_18N
B23: GpH7-A5/GpH7-B3 variant P271_11K/GpL16-k0 (antibody, human IgG1, kappa)
heavy 1: not shown
heavy 2: not shown
light: B1 light
notes: also called He Ab P271_11K
B24: GpH7-A5/GpH7-B3 variant Q295_05P/GpL16-k0 (antibody, human IgG1, kappa)
heavy 1: not shown
heavy 2: not shown
light: B1 light
notes: also called He Ab Q295_05P
B25: GpH7-A5/GpH7-B3 variant Q295_13S/GpL16-k0 (antibody, human IgG1, kappa)
heavy 1: not shown
heavy 2: not shown
light: B1 light
notes: also called He Ab Q295_13S

T1 sequence (P12314 16-292): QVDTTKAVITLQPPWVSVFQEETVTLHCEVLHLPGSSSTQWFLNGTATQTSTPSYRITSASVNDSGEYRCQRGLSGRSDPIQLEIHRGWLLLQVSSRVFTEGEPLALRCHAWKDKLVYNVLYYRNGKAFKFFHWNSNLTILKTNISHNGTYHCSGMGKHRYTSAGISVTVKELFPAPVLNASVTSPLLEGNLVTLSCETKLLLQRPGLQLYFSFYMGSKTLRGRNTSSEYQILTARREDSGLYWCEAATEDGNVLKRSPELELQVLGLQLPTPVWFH

This assay concerns the target T1, FcγRIa (human, UniProt P12314 16-292).
T1 construct: extracellular domain; Soluble extracellular domain expressed in FreeStyle293 cells, used as analyte in Biacore; also called FcgRI; 1a; not shown: His tag attached to the C terminus
The experiment in a line: SPR (Biacore); He Ab vs HeCon Ab GpH7-A5/GpH7-B3/GpL16-k0. How it is done: Analysis of interaction between objective antibody and the FcγR was carried out using Biacore T100 (GE Healthcare). HBS-EP+ (GE Healthcare) was used as the running buffer, and the measurement temperature was set to 25° C. Chips produced by immobilizing the antigen peptide by the amine coupling method to a Series S Sencor Chip CM5 (GE Healthcare), or alternatively, chips produced by allowing preliminarily biotinylated antigen peptides to interact with and immobilize onto a Series S Sensor Chip SA (certified) (GE Healthcare) were used. Antibodies of interest were captured onto an antigen peptide-immobilized chip, and allowed to interact to each FcγR diluted with running buffer. To regenerate and repeatedly use the chip, the antibodies captured on the chip were washed off by reacting 10 mM glycine-HCl, pH 1.5.
As for B1, the He/Con_1a was 109 relative binding, control = 100.
In the case of B2, the He/Con_1a is 102 relative binding, control = 100.
For B3 the value was 109 relative binding, control = 100.
Regarding B4, the He/Con_1a was 101 relative binding, control = 100.
For B5 the value was 102 relative binding, control = 100; for B6, 101 relative binding, control = 100; for B7, 102 relative binding, control = 100.
For the molecule B8, the He/Con_1a was 108 relative binding, control = 100.
As for B9, the He/Con_1a is 103 relative binding, control = 100.
As for B10, the figure is 103 relative binding, control = 100; as for B11, 102 relative binding, control = 100; as for B12, 103 relative binding, control = 100.
As for B13, the figure is 102 relative binding, control = 100; as for B14, 100 relative binding, control = 100; as for B15, 101 relative binding, control = 100.
Take B16: the He/Con_1a was 103 relative binding, control = 100.
With B17, the He/Con_1a is 106 relative binding, control = 100.
For the molecule B18, the He/Con_1a is 101 relative binding, control = 100.
As for B19, the figure is 110 relative binding, control = 100; as for B20, 104 relative binding, control = 100.
For B21 the value was 104 relative binding, control = 100; for B22, 101 relative binding, control = 100.
For B23 the value was 103 relative binding, control = 100; for B24, 103 relative binding, control = 100; for B25, 102 relative binding, control = 100.
